Results reported in patent US20130071418.

Legend:
[1] = system: CVA24 VPg
[2] = system: T1, PCP-consensus VPg
T1 sequence: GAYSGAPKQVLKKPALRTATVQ

Which “uridylylation of VPg by Pol3D” value [1] does the source give for “Coxsackie virus A25 polymerase (CVA Pol3D)” here?
Its value is “uridylylated the PCP-consensus VPg as well or better than the one encoded in their respective genomes”.

And the “uridylylation of VPg by Pol3D” value [2]?
Its value is “both the PV-Pol3D and that of CVA uridylylated the PCP-consensus VPg as well or better than the one encoded in their respective genomes”.
